± gives the uncertainty stated by the source.
Assay: protein stability index of a GFP-peptide fusion (yeast GPS) (PSI 1-4); higher = more stable; sorted into four equal gates, so the index is relative within each strain
Procedure, shortened: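 Plasmids in a pooled yeast library fused tiled 17-residue yeast protein peptides downstream of GFP and also expressed Cherry. Mid-log cultures grown without leucine were sorted into four equal gates by GFP/Cherry fluorescence ratio. Each gate's plasmids were PCR-amplified and Illumina-sequenced, and reads were matched to strains by barcodes. The protein stability index is derived by multiplying each gate's read frequency by its gate number and summing the results.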

| Sequence | protein stability index (pdr5∆) | protein stability index (san1∆) | protein stability index (ubr1∆) | protein stability index (doa10∆) |
| --- | --- | --- | --- | --- |
| TRGRNIIMHKDVEIGRM [RET1] | 3.1 ± 0.16 | 2.98 ± 0.076 | 2.74 ± 0.15 | – |
| YHNLTTHNSYEKACQVL [RPN6] | 3.11 ± 0.058 | 3.1 ± 0.063 | 2.99 ± 0.037 | 3.33 ± 0.071 |
| GATVFVNHLLLFAREIA [DPB4] | 1.9 ± 0.04 | 1.41 ± 0.087 | 1.72 ± 0.039 | 1.94 ± 0.046 |
| YISKAQNDQWSIQMEFM [SSN2] | 2.73 ± 0.071 | 2.71 ± 0.059 | 3.04 ± 0.053 | 2.79 ± 0.064 |
| LRLTRINSGTFVKVTKA [RPL7A] | – | 1.43 ± 0.28 | – | 1.89 ± 0.1 |
| RKNYMHVKNFGFANSLT [YML031W/NDC1] | 1.9 ± 0.11 | 2.3 ± 0.14 | 2.85 ± 0.063 | 1.18 ± 0.11 |
| VDKGAIMKNKDFILSLL [YJL039C/NUP192] | 1.81 ± 0.096 | 1.95 ± 0.11 | 1.96 ± 0.069 | 2 ± 0.17 |
| MIDAVFEQDSHLRYQPD [SNF6] | 3.19 ± 0.065 | 3.15 ± 0.041 | 3.19 ± 0.054 | 3.09 ± 0.076 |
| PIYYQKLKHMVLDKMHA [RET1] | 2.03 ± 0.088 | 1.62 ± 0.094 | 1.77 ± 0.063 | 1.58 ± 0.076 |
| WQGKPVFIRHRTPHEIQ [RIP1] | 2.24 ± 0.28 | – | 1.68 ± 0.17 | – |
| QAAAKPSLEKSSFTFGS [YLR335W/NUP2] | 2.97 ± 0.1 | 2.97 ± 0.18 | 2.73 ± 0.075 | 3.04 ± 0.1 |
| VTRFTTWNGSPFDNSTE [YJL039C/NUP192] | 2.17 ± 0.052 | 2.3 ± 0.099 | 2.41 ± 0.067 | 2.44 ± 0.079 |
| KSESPSEVLVDTLDSKS [ISW2] | 3.11 ± 0.068 | 2.96 ± 0.075 | 3.24 ± 0.056 | 2.98 ± 0.067 |
| AQQQQLSNYPQQIQEQV [YGR119C/NUP57] | 3.09 ± 0.058 | 2.71 ± 0.046 | 3.02 ± 0.044 | 2.82 ± 0.059 |
| RNPARLMETLRTLRRKG [RPB2] | 3.06 ± 0.086 | 2.47 ± 0.089 | 2.87 ± 0.13 | 2.28 ± 0.077 |
| NIETGENHNGQSISNEN [SWI3] | 3.14 ± 0.12 | 3.06 ± 0.12 | 3.13 ± 0.12 | 2.59 ± 0.26 |
| FHESGSQYSTMVNIGLH [RGR1] | 3.19 ± 0.11 | 2.7 ± 0.18 | 3.27 ± 0.14 | 3.19 ± 0.12 |
| ASISLAIGYPTLPSVGH [RPP0] | 2.73 ± 0.059 | 2.86 ± 0.11 | 2.62 ± 0.049 | 2.66 ± 0.075 |
| NDLDEDDIYDISLLKNR [RPN4] | 3.2 ± 0.11 | 3.23 ± 0.14 | 3.22 ± 0.2 | 2.87 ± 0.12 |
| CRYSCLALERMVPKRST [YCS4] | – | – | 2.02 ± 0.18 | 2.71 ± 0.27 |
| WVLHRDLKPANIMVTID [SSN3] | 1.98 ± 0.14 | – | 2.48 ± 0.14 | 1.28 ± 0.18 |
| DSVLLNRGNKKRHRSSY [YML031W/NDC1] | 3.25 ± 0.1 | 3.04 ± 0.06 | 3.15 ± 0.076 | 3.03 ± 0.099 |
| SSIHAIGSIKEDYLGAI [RPB7] | 2.74 ± 0.064 | 2.71 ± 0.067 | 3.01 ± 0.095 | 2.61 ± 0.076 |
| IIDVGTHHTDIIPIVDY [ARP9] | 2.48 ± 0.056 | 2.5 ± 0.056 | 2.59 ± 0.036 | 2.41 ± 0.088 |
| GKGRFQTPAEKHAFMGT [RPL3] | 3.2 ± 0.061 | 2.97 ± 0.1 | 2.98 ± 0.093 | 3.13 ± 0.17 |
| DMDAQGRSDSNTEEKAE [YGL100W/SEH1] | 1.67 ± 0.051 | 1.5 ± 0.14 | 1.4 ± 0.041 | 1.57 ± 0.038 |
| REHERVILKQILQILDQ [SWP82] | 2.86 ± 0.066 | 2.84 ± 0.063 | 2.8 ± 0.046 | 2.83 ± 0.077 |

| Sequence | protein stability index (pdr5∆) | protein stability index (san1∆) | protein stability index (ubr1∆) | protein stability index (doa10∆) |
| --- | --- | --- | --- | --- |
| VEFCGYSIPHPSENLLN [RPC19] | 3.05 ± 0.062 | 2.92 ± 0.05 | 2.95 ± 0.074 | 2.7 ± 0.077 |
| RKHTRGDVSSGLFEKST [BRN1] | 3.27 ± 0.1 | 2.5 ± 0.14 | – | 2.81 ± 0.16 |
| QIVQVLKQPPFQITLSS [SSN8] | 2.06 ± 0.074 | 1.86 ± 0.094 | 2.54 ± 0.081 | 2.12 ± 0.062 |
| ACEPTAEKFVPIDIFQI [SIR3] | 2.71 ± 0.059 | 2.66 ± 0.07 | 2.98 ± 0.048 | 2.72 ± 0.092 |
| PMIKAEETPSKTNKISI [NUT1] | 2.8 ± 0.049 | 2.6 ± 0.06 | 2.84 ± 0.051 | 2.52 ± 0.057 |
| GYSGYGNGITNTTTRVI [SNF5] | 3.72 ± 0.24 | 2.76 ± 0.18 | – | 3.64 ± 0.2 |
| TYEIICDQTKSVPLMIN [RRP43] | 2.3 ± 0.11 | 1.49 ± 0.11 | 1.55 ± 0.069 | 1.66 ± 0.073 |
| GKLLLDEHNELMRQALA [RPO21] | 2.54 ± 0.086 | 2.02 ± 0.074 | 2.84 ± 0.051 | 2.41 ± 0.052 |
| DMANEIILSIDEHHESF [RRP6] | 2.98 ± 0.093 | 2.95 ± 0.062 | 2.9 ± 0.049 | 3.01 ± 0.068 |
| QSLANIQYVTYLLTQQQ [SOH1] | 2.4 ± 0.045 | 2.19 ± 0.047 | 2.41 ± 0.033 | 2.23 ± 0.048 |
| DKKLNLNLPLQFSLPNG [SNF12] | 3.02 ± 0.079 | 2.62 ± 0.074 | 2.7 ± 0.075 | 3.04 ± 0.085 |
| LDENLNSLSSNLSSLIV [YJL041W/NSP1] | 2.54 ± 0.061 | 2.66 ± 0.065 | 2.6 ± 0.044 | 2.41 ± 0.04 |
| FDDLEVEELPTFHDYDM [RRP42] | 2.63 ± 0.064 | 2.79 ± 0.043 | 2.88 ± 0.043 | 2.6 ± 0.069 |
| KEHDEIEEQGDALQDVE [DPB4] | 3.39 ± 0.12 | 3.36 ± 0.06 | 3.36 ± 0.067 | 3.17 ± 0.092 |
| QQRKQKKNRDKKIFGTG [RPS24A] | 3.14 ± 0.055 | 3.25 ± 0.035 | 3.06 ± 0.067 | 3.17 ± 0.093 |
| KNKYGEINSEDYDNKTK [SRP68] | 2.89 ± 0.16 | 3.43 ± 0.06 | 3.14 ± 0.084 | 3.23 ± 0.094 |
| SVKSVKFPTRKIYMLYS [RPC34] | – | – | 3.58 ± 0.25 | – |
| EVFSVLGIEAARYSIIR [RPO31] | 1.63 ± 0.11 | 1.43 ± 0.25 | 1.59 ± 0.14 | 1.72 ± 0.13 |
| KRVSGTSQHSDSLTQNN [YOR098C/NUP1] | 2.71 ± 0.055 | 2.73 ± 0.072 | 2.68 ± 0.054 | 2.5 ± 0.088 |
| GLNRHYYSLNIDYHKTA [RPN11] | 2.27 ± 0.29 | 2.85 ± 0.12 | 2.61 ± 0.14 | – |
| LIVDVKQQGVGLPTDAY [RPN8] | 2.77 ± 0.25 | 1.28 ± 0.26 | – | 2.07 ± 0.25 |
| PAANESEVANNGLIISW [RRP42] | 1.49 ± 0.052 | 1.13 ± 0.28 | 1.4 ± 0.072 | 1.43 ± 0.15 |
| NNNVTAVPAATPANTNN [SWI1] | 3.08 ± 0.046 | 2.76 ± 0.032 | 2.98 ± 0.042 | 2.79 ± 0.046 |
| SKVASSLVIIILVKRYS [ECM29] | 1.44 ± 0.042 | 1.71 ± 0.094 | 2.12 ± 0.051 | 1.85 ± 0.054 |
| FGANQATNTFGSNQQSS [YGR119C/NUP57] | 3.26 ± 0.076 | 3.2 ± 0.12 | 2.92 ± 0.073 | 2.91 ± 0.12 |
| KAGKITTIEEIFLHSLP [RPS2] | 2.69 ± 0.12 | 2.52 ± 0.082 | 2.94 ± 0.066 | 2.8 ± 0.11 |
